We go through four molecules from article PMC5836831, “Candidate SNP markers of reproductive potential are predicted by a significant change in the affinity of TATA-binding protein for human gene promoters”.

Series [1] has as its target T1, TATA-binding protein (TBP) (human, UniProt P20226 1-339). In words: EMSA. Conditions: EMSA: 20 mM HEPES-KOH pH 7.6, 5 mM MgCl2, 70 mM KCl, 1 mM EDTA, 100 ug/ml BSA, 0.01% NP-40, 5% glycerol, 25 C, 0.3 nM TBP titrated with ODN; stopped-flow: …. For orientation: A gel shift assay detects complexes by their altered migration in electrophoresis.
In series [2] the target is T1, TATA-binding protein (TBP). In words: stopped-flow fluorescence (FRET); EMSA: 20 mM HEPES-KOH pH 7.6, 5 mM MgCl2, 70 mM KCl, 1 mM EDTA, 100 ug/ml BSA, 0.01% NP-40, 5% glycerol, 25 C, 0.3 nM TBP titrated with ODN; stopped-flow: 0.1 uM ODN, 0.1-1.0 uM TBP, buffer not stated. Conditions: protein: recombinant; label: 5'-TAMRA and 5'-FAM; blunt.

T1 sequence (P20226 whole entry): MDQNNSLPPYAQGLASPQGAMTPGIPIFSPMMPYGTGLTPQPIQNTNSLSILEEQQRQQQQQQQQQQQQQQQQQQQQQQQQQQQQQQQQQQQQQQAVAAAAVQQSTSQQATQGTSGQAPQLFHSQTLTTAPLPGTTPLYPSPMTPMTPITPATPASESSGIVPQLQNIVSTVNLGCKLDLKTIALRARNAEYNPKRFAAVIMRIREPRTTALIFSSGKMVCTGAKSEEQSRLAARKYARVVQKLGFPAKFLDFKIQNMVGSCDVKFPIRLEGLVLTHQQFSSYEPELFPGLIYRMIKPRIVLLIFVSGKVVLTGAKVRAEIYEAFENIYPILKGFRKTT

The Kd is the constant that tells how readily two partners part at equilibrium. Consider “HBB promoter ODN, ancestral (rs33981098 a)”, for which the Kd in series [1] was 44 nM. HBB promoter ODN, minor (rs33981098): in series [1], the Kd amounted to 90 nM.

B1: TPI1 promoter ODN, minor (rs1800202 g) (dsDNA)
DNA 1: CTCTATAGAAGTGGG
DNA 2: CCCACTTCTATAGAG
Regarding B1, the Kd in series [2] worked out at 6 nM.

B2: TPI1 promoter ODN, ancestral (rs1800202 t) (dsDNA)
DNA 1: CTCTATATAAGTGGG
DNA 2: CCCACTTATATAGAG
Turning to B2, the Kd in series [2] came to 1 nM.
